Our source for the Kd values is publication PMC3320877 (2012).

Assay [1] deals with T1, recombinant His-tagged insect-cell expressed CCR5, detergent-solubilised (UniProt P51681 1-352). The assay is described as follows: SPR; two binding site model, KD1.
For assay [2], the target named is T1, recombinant His-tagged insect-cell …. The assay is described as follows: SPR; two binding site model, KD2 (second site).
Assay [3] shares this target. The assay is described as follows: SPR; 1:1 binding model.

T1 sequence (P51681 whole entry): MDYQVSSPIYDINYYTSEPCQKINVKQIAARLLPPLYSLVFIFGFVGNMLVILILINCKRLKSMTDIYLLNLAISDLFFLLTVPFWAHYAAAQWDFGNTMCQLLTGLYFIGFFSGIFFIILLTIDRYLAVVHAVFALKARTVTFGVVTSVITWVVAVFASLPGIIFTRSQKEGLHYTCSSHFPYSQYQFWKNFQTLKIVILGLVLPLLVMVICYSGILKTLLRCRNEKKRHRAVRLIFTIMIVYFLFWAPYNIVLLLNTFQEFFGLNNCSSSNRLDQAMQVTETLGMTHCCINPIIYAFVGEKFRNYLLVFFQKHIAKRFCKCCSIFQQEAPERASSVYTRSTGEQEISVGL

B1: visfatin (recombinant) (natural protein)
chain: MNPAAEAEFNILLATDSYKVTHYKQYPPNTSKVYSYFECREKKTENSKLRKVKYEETVFYGLQYILNKYLKGKVVTKEKIQEAKDVYKEHFQDDVFNEKGWNYILEKYDGHLPIEIKAVPEGFVIPRGNVLFTVENTDPECYWLTNWIETILVQSWYPITVATNSREQKKILAKYLLETSGNLDGLEYKLHDFGYRGVSSQETAGIGASAHLVNFKGTDTVAGLALIKKYYGTKDPVPGYSVPAAEHSTITAWGKDHEKDAFEHIVTQFSSVPVSVVSDSYDIYNACEKIWGEDLRHLIVSRSTQAPLIIRPDSGNPLDTVLKVLEILGKKFPVTENSKGYKLLPPYLRVIQGDGVDINTLQEIVEGMKQKMWSIENIAFGSGGGLLQKLTRDLLNCSFKCSYVVTNGLGINVFKDPVADPNKRSKKGRLSLHRTPAGNFVTLEEGKGDLEEYGQDLLHTVFKNGKVTKSYSFDEIRKNAQLNIELEAAHH
Turning to B1, the Kd worked out at 2 nM in assay [1], 600 nM in assay [2] and 5000 nM in assay [3].
